Experimental findings from patent publication US20240424125A1 (Zymeworks, published 2024) are described below.

The target in assay [1] is T1, human FRα on cells (human, UniProt P15328 25-234).
T1 construct: Transiently expressed on HEK293-6e, CHO-S or HEK293 microarray cells, or endogenous on JEG-3, HEC-1-A, IGROV-1, OVCAR-3, H2110, KB-HeLa and T-47D cells; also called human folate receptor alpha; FOLR1
Description: apparent Kd, flow cytometry, CHO-S cells transiently expressing human FRα, 24 h at 4°C. The protocol:
Briefly, CHO-S cells were transfected for −24 hours to transiently express human or cynomolgus monkey FRα, 1 ug DNA per 1 million cells. Following transfection, cells were seeded at 50,000 cells/well in V-bottom 96-well plates and treated with antibody for 24 hours at 4° C. to prevent internalization. […] Following incubation and washing, fluorescence was detected by flow cytometry on a BD LSRFortessa™ Cell Analyzer (BD Biosciences, Franklin Lake, NJ).
(In general: In flow cytometry, cells or beads pass a laser one at a time.)

In assay [2] the target is T1, human FRα on cells. Briefly: apparent Kd, flow cytometry on JEG-3 cells (endogenous FRα), as in Example 16. The protocol: (§1) Briefly, cells were seeded at 50,000 cells/well in V-bottom 96-well plates and treated with antibody for 24 hours at 4° C. to prevent internalization. […] Following incubation and washing, fluorescence was detected by flow cytometry on a BD LSRFortessa™ Cell Analyzer (BD Biosciences, Franklin Lake, NJ) with 1,000 minimum events collected per well. AF647/APC-A GeoMean (fluorescence signal geometric mean, proportional to anti-Human AF647 binding) in live cell population was plotted using GraphPad Prism Version 9 (GraphPad Software, San Diego, CA).

Assay [3] concerns the target T1, human FRα on cells. Briefly: apparent Kd, flow cytometry on IGROV-1 cells (endogenous FRα), as in Example 16. The procedure:
as §1

Assay [4] has as its target T2, recombinant His-tagged human FRα (ACROBiosystems) (human, UniProt P15328 25-233).
T2 construct: also called hFRα; hFRα antigen; not shown: His tag
Description: BLI (Octet RED96) as in Example 8: antibody captured, His-tagged hFRα as analyte, mean of n=2. The protocol: (§2) The assay buffer used was KB buffer (kinetics buffer, composed of PBS pH 7.4, 0.1% BSA, 0.02% Tween 20, 0.05% sodium azide) supplemented with 0.06% Tween 20 and in some instances also with 1% BSA. The experiment was conducted at 30° C. with a shake speed of 1000 rpm.
(§3) Data analysis was performed using Data Analysis Software 9.0 (ForteBio, Fremont CA). The reference-subtracted binding curves were globally fitted to the 1:1 interaction model to generate the binding kinetic parameters kₒₙ, koff, and the dissociation constant KD.

Assay [5] deals with T2, recombinant His-tagged human FRα …. Briefly: BLI (Octet RED96); end of the range tied to v35305 by Table 20.1. The procedure:
as §2, §3
(In general: Biolayer interferometry detects binding as a change in optical thickness at a sensor tip.)

For another assay, the target named is T3, FCGR1A (human, UniProt P12314).
T3 construct: overexpressed on reverse-transfected HEK293 cells, fixed; One of the FcgR receptors that the text names only as a group
T3 sequence (P12314 16-374 limits assumed): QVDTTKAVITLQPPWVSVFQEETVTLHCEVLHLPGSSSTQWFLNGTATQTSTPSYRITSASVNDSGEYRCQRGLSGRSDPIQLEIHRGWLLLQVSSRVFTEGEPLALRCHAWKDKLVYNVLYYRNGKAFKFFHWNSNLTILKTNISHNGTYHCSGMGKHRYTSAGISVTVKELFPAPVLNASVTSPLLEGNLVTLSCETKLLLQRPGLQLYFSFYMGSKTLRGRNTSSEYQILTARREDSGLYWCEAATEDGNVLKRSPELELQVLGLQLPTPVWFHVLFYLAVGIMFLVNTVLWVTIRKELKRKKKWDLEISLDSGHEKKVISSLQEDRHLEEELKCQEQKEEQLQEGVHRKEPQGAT
Description: Retrogenix cell microarray, fixed cell confirmation screen, HEK293 cells overexpressing the protein, v36675 at 20 µg/mL, detection with AF647 anti-hIgG H+L; the text calls FcgR signals Fc-domain mediated. The procedure: (§4) Fluorescent images were analysed and quantitated (for transfection) using ImageQuant™ software (Version 8.2; GE Healthcare, Chicago, IL). A protein hit was defined as a duplicate spot showing an increased signal compared to background levels and was identified by visual inspection using the images gridded on the ImageQuant™ software. Hits were classified as strong, medium, weak or very weak by visual inspection by two experienced scientists based on the intensity of the duplicate spots.

Another assay concerns the target T4, FCGR2A (human, UniProt P12318).
T4 construct: overexpressed on reverse-transfected HEK293 cells, fixed; One of the FcgR receptors that the text names only as a group
T4 sequence (receptor chain, looked up): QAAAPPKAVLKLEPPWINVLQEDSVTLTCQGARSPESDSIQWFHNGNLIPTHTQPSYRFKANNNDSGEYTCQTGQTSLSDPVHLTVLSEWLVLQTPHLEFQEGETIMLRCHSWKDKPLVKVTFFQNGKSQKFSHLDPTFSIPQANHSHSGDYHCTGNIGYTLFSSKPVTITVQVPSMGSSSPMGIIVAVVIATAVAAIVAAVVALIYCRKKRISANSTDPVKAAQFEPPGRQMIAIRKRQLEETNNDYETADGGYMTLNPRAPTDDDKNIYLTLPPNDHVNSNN
The assay is described as above. The procedure: as §4

Assay [6] concerns the target T2, recombinant His-tagged human FRα …. Briefly: BLI (Octet RED96); end of the range tied to v35348 by Table 20.1. The protocol: as §2, §3
Assay [7] has the same target. Briefly: BLI (Octet RED96); end of the range tied to v30394 by Table 8.1. The procedure: as §2, §3
Assay [8] has the same target. Briefly: BLI (Octet RED96): antibody on anti-human IgG Fc capture biosensor, His-tagged hFRα as analyte, 1:1 global fit, mean of n=2. The procedure: as §2, §3
The target is the same in assay [9]. Briefly: BLI (Octet RED96); end of the range tied to v31426 by Table 8.1. The protocol:
as §2, §3

T1 sequence (P15328 25-234 limits assumed): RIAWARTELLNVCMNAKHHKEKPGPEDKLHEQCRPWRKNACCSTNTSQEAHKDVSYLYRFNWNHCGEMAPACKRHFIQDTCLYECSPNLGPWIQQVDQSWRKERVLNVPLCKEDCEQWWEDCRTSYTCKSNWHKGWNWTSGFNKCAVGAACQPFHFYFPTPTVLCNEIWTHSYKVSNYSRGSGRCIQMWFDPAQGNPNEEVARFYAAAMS
T2 sequence (P15328 25-233 limits assumed): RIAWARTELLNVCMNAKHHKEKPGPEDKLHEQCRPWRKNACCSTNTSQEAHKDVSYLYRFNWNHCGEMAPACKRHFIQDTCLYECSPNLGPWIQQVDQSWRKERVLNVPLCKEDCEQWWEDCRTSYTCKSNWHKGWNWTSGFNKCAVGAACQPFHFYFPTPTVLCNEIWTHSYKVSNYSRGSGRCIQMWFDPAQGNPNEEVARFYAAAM

B1: Palivizumab (anti-RSV) (v22277) (antibody, V domains shown)
VH: QVTLRESGPALVKPTQTLTLTCTFSGFSLSTSGMSVGWIRQPPGKALEWLADIWWDDKKDYNPSLKSRLTISKDTSKNQVVLKVTNMDPADTATYYCARSMITNWYFDVWGAGTTVTVSS
VL: DIQMTQSPSTLSASVGDRVTITCKCQLSVGYMHWYQQKPGKAPKLLIYDTSKLASGVPSRFSGSGSGTEFTLTISSLQPDDFATYYCFQGSGYPFTFGGGTKLEIK
Turning to B1, the Kd with human FRα on cells [1] was greater than 50 nM.

B2: v35356 (antibody, human IgG1, kappa, V domains shown)
VH: EVQLLESGGGLVQPGGSLRLSCAVSGFSLSSYGVSWVRQAPGKGLEWIGAVNSGGSAYYADSFKGRSTISRDNSKNTVYLQMNSLRAEDTAVYYCARSGSGYPMDYHPIWGQGTLVTVSS
VL: DYQMTQSPSSVSASVGDRVTITCRASQSIGDWLAWYQQKPGKAPKLLIYEASTLASGVPSRFSGSGSGTDFTLTISSVQPEDAATYYCQQGYGRWHILNIFGGGTKVEVKR
As for B2, the Kd with human FRα on cells [2] amounted to 0.44 nM; with human FRα on cells [3] it was 1.31 nM; in assay [4], 4.98 nM.

B3: v35305 (antibody, human IgG1, kappa, V domains shown)
VH: EVQLLESGGGLVQPGGSLRLSCAVSGFSLSLYGVSWVRQAPGKGLEWIGAVNSGGSAYYADSVKGRSTISRDNSKNTVYLQMNSLRAEDTAVYYCARSGSGYPMDYLAIWGQGTLVTVSS
VL: DYQMTQSPSSVSASVGDRVTITCRASQSIWYWLAWYQQKPGKAPKLLIYEASTLASGVPSRFSGSGSGTDFTLTISSVQPEDAATYYCQQGYGRSNVDNIFGGGTKVEVKR
On to B3, for which the “fold improvement of affinity over the parental humanized antibody v30384” value in assay [5] was determined as 12 fold. For the same molecule, in assay [4], the Kd came to 10.8 nM.

B4: v36675 (antibody, human IgG1, kappa)
heavy: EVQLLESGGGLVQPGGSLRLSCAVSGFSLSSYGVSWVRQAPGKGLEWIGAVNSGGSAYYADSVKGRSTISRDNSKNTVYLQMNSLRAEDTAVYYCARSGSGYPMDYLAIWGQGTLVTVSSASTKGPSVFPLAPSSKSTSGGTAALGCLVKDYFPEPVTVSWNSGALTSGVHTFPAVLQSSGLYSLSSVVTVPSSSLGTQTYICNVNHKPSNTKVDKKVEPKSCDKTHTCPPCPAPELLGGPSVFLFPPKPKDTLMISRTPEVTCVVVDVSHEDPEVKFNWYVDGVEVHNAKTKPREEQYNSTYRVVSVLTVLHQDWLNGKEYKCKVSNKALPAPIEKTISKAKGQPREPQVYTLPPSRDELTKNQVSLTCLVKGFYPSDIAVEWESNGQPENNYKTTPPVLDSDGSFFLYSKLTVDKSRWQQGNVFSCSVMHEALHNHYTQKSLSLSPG
light: DYQMTQSPSSVSASVGDRVTITCRASQSIGDWLAWYQQKPGKAPKLLIYEASTLASGVPSRFSGSGSGTDFTLTISSVQPEDAATYYCQQGYGRSNVDNIFGGGTKVEVKRTVAAPSVFIFPPSDEQLKSGTASVVCLLNNFYPREAKVQWKVDNALQSGNSQESVTEQDSKDSTYSLSSTLTLSKADYEKHKVYACEVTHQGLSSPVTKSFNRGEC
notes: Same paratopes as v30384 but HomoFc instead of HetFc; also called humanized variant v36675
In the case of B4, the binding result in the assay with FCGR1A and with FCGR2A was “binds” throughout.

B5: v35348 (antibody, human IgG1, kappa, V domains shown)
VH: EVQLLESGGGLVQPGGSLRLSCAVSGFSLSLYGVSWVRQAPGKGLEWIGAVNSGGSAYYADSFKGRSTISRDNSKNTVYLQMNSLRAEDTAVYYCARSGSGYPMDYHPIWGQGTLVTVSS
VL: DYQMTQSPSSVSASVGDRVTITCRASQSIGDWLAWYQQKPGKAPKLLIYEASTLASGVPSRFSGSGSGTDFTLTISSVQPEDAATYYCQQGYGRWHILNIFGGGTKVEVKR
Take B5: the “fold improvement of affinity over the parental humanized antibody v30384” value in assay [6] stood at 58 fold. In addition, the Kd in assay [4] was 2.2 nM.

B6: v30394 (antibody, human IgG1, kappa)
heavy 1: EVQLLESGGGLVQPGGSLRLSCAVSGFSLSSYGVSWVRQAPGKGLEWIGAVNSGGSAYYADWAKGRSTISRDNSKNTVYLQMNSLRAEDTAVYYCARSGSGYPMDYLAIWGQGTLVTVSSASTKGPSVFPLAPSSKSTSGGTAALGCLVKDYFPEPVTVSWNSGALTSGVHTFPAVLQSSGLYSLSSVVTVPSSSLGTQTYICNVNHKPSNTKVDKKVEPKSCDKTHTCPPCPAPELLGGPSVFLFPPKPKDTLMISRTPEVTCVVVDVSHEDPEVKFNWYVDGVEVHNAKTKPREEQYNSTYRVVSVLTVLHQDWLNGKEYKCKVSNKALPAPIEKTISKAKGQPREPQVYVYPPSRDELTKNQVSLTCLVKGFYPSDIAVEWESNGQPENNYKTTPPVLDSDGSFALVSKLTVDKSRWQQGNVFSCSVMHEALHNHYTQKSLSLSPG
heavy 2: not shown
light: DYQMTQSPSSVSASVGDRVTITCRASQSIGDWLAWYQQKPGKAPKLLIYEASTLASGVPSRFSGSGSGTDFTLTISSVQPEDAATYYCQQGYGRSNVDNIFGGGTKVEVKRTVAAPSVFIFPPSDEQLKSGTASVVCLLNNFYPREAKVQWKVDNALQSGNSQESVTEQDSKDSTYSLSSTLTLSKADYEKHKVYACEVTHQGLSSPVTKSFNRGEC
notes: Humanized IgG1/kappa, HetFc; also called 4H4L
B6: the “fold reduced affinity compared to the parental chimera antibody v23924” value in [7] amounted to 2 fold. Also, the Kd in assay [8] was 63 nM.

B7: v31426 (antibody, human IgG1, kappa)
heavy: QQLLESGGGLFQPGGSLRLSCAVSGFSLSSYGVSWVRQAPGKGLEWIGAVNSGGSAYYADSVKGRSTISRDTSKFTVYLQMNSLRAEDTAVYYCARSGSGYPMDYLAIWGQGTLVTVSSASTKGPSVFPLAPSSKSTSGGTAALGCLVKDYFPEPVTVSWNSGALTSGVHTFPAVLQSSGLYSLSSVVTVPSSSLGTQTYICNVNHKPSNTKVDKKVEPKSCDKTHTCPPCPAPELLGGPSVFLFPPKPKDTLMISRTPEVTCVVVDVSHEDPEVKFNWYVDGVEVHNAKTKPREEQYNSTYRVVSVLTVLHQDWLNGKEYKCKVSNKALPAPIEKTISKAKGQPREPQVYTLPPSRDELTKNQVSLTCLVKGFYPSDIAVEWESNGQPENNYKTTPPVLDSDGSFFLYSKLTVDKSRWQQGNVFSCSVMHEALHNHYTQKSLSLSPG
light: DYQMTQSPSSVSASVGDRVTITCRASQSIGDWLAWYQQKPGKAPKLLIYEASTLASGVPSRFSGSGSGTDFTLTISSVQPEDAATYYCQQGYGRSNVDNIFGGGTKVEVKRTVAAPSVFIFPPSDEQLKSGTASVVCLLNNFYPREAKVQWKVDNALQSGNSQESVTEQDSKDSTYSLSSTLTLSKADYEKHKVYACEVTHQGLSSPVTKSFNRGEC
notes: Humanized IgG1/kappa, HomoFc; also called 3gH4L
As to B7, the “fold reduced affinity compared to the parental chimera antibody v23924” value in assay [9] was determined as 8 fold. Further, the Kd in assay [8] came out at 210 nM.
